Laboratory results reported in US20240181094A1, “[161Tb]-BASED RADIOPEPTIDES” (priority 2021, published 2024).

Assays:
[1] = tested on: AR42 J tumor-bearing mice; assay: Preclinical therapy study in AR42 J tumor-bearing mice; type: in vivo; conditions: 2 x 10 MBq; for tumor doubling time: 0.2 nmol, regrowth phase, fitted exponential curve
[2] = mouse, in vivo
Protocol: Early side effects were assessed based on the RBW of each mouse which was monitored every second day. When an endpoint was reached or at the end of the study (after 49 days), relevant organs and tissues were collected, weighed and put into relation to the brain mass and body weight of the respective mouse. This allowed comparison of organ-to-brain and organ-to-body mass weight ratios. In addition, blood plasma parameters from blood collected immediately after euthanasia were measured.
RBW, organ mass and mass ratios at the endpoint. The RBW was monitored every second day. Mice were euthanized when a predefined endpoint criterion was reached or when the study was terminated at Day 49. RBWs, organ masses, organ mass ratios (kidney-to-brain, liver-to-brain and spleen-to-brain) and organ mass to body weight ratios (kidney-to-body mass, liver-to-body mass and spleen-to-body mass) were analyzed for significance using a one-way ANOVA test with a Tukey's multiple comparisons post-test. A p-value of <0.05 was considered as statistically significant.
Blood plasma chemistry: Immediately before euthanasia of the mice that reached the endpoint, blood was sampled from the retrobulbar vein. The values of creatinine (CRE), blood urea nitrogen (BUN), alkaline phosphatase (ALP), total bilirubin (TBIL) and albumin (ALB) were determined in the plasma after centrifugation of the blood using a dry chemistry analyzer (DRI-CHEM 4000 i, FUJIFILM, Japan). The average blood plasma parameters of each group were analyzed for significance using a one-way ANOVA test with a Tukey's multiple comparisons post-test. A p-value of <0.05 was considered as statistically significant.

AR42J tumor-bearing mice = assay: Biodistribution studies: assessment of the optimum injected molar amount; conditions: 2 h p.i.; for kidney uptake: irrespective of the injected amount of peptide

C[C@@H](O)[C@@H]1NC(=O)[C@H](CCCCN)NC(=O)[C@@H](Cc2c[nH]c3ccccc23)NC(=O)[C@H](Cc2ccc(O)cc2)NC(=O)[C@@H](NC(=O)[C@@H](Cc2ccccc2)NC(=O)CN2CCN(CC(=O)O)CCN(CC(=O)O)CCN(CC(=O)O)CC2)CSSC[C@@H](C(=O)N[C@H](CO)[C@@H](C)O)NC1=O [[^161Tb]Tb-DOTATOC] [metal not drawn]
Median survival ([1]; 0.2 nmol (Day 0, Day 7)): 21 days
tumor growth delay ([1]; 0.2 nmol (Day 0, Day 7)): 9.0 ± 5.5 days
tumor doubling time [1]: 3.4 ± 3.6 days
ALB (albumin), plasma [2]: 23 ± 2 g/L
ALP (alkaline phosphatase), plasma [2]: 76 ± 21 U/L
BUN (blood urea nitrogen), plasma [2]: 5.8 ± 1.0 mmol/L
CRE (creatinine), plasma [2]: <18 µmol/L
Organ mass Brain [2]: 440 ± 23 mg
Organ mass Kidneys [2]: 352 ± 27 mg
Organ mass Liver [2]: 1195 ± 57 mg
Organ mass Spleen [2]: 86 ± 19 mg
AR42J Tumor uptake (AR42J tumor-bearing mice; 0.040 nmol/mouse): 16 ± 4 % IA/g
Adrenals uptake (AR42J tumor-bearing mice; 0.040 nmol/mouse): 0.65 ± 0.08 % IA/g
Intestines uptake (AR42J tumor-bearing mice; 0.040 nmol/mouse): 0.52 ± 0.15 % IA/g
Kidneys uptake (AR42J tumor-bearing mice; 0.040 nmol/mouse): 9.0 ± 2.0 % IA/g
Liver uptake (AR42J tumor-bearing mice; 0.040 nmol/mouse): 0.22 ± 0.02 % IA/g
Pancreas uptake (AR42J tumor-bearing mice; 0.040 nmol/mouse): 2.1 ± 0.5 % IA/g
Spleen uptake (AR42J tumor-bearing mice; 0.040 nmol/mouse): 0.50 ± 0.11 % IA/g
Stomach uptake (AR42J tumor-bearing mice; 0.040 nmol/mouse): 2.9 ± 1.1 % IA/g
AR42J Tumor uptake (AR42J tumor-bearing mice; 0.20 nmol/mouse): 14 ± 1 % IA/g
Adrenals uptake (AR42J tumor-bearing mice; 0.20 nmol/mouse): 0.43 ± 0.11 % IA/g
Blood uptake (AR42J tumor-bearing mice; 0.20 nmol/mouse): ≤0.10 % IA/g
Femur uptake (AR42J tumor-bearing mice; 0.20 nmol/mouse): 0.12 ± 0.03 % IA/g
Intestines uptake (AR42J tumor-bearing mice; 0.20 nmol/mouse): 0.24 ± 0.01 % IA/g
Kidneys uptake (AR42J tumor-bearing mice; 0.20 nmol/mouse): 9.4 ± 0.4 % IA/g
Liver uptake (AR42J tumor-bearing mice; 0.20 nmol/mouse): 0.19 ± 0.03 % IA/g
Lung uptake (AR42J tumor-bearing mice; 0.20 nmol/mouse): 0.47 ± 0.05 % IA/g
Pancreas uptake (AR42J tumor-bearing mice; 0.20 nmol/mouse): 1.5 ± 0.2 % IA/g
Spleen uptake (AR42J tumor-bearing mice; 0.20 nmol/mouse): 0.18 ± 0.02 % IA/g
AR42J Tumor uptake (AR42J tumor-bearing mice; 1.0 nmol/mouse): 8.2 ± 0.2 % IA/g
Adrenals uptake (AR42J tumor-bearing mice; 1.0 nmol/mouse): 0.25 ± 0.06 % IA/g
Blood uptake (AR42J tumor-bearing mice; 1.0 nmol/mouse): ≤0.10 % IA/g
Femur uptake (AR42J tumor-bearing mice; 1.0 nmol/mouse): ≤0.10 % IA/g
Heart uptake (AR42J tumor-bearing mice; 1.0 nmol/mouse): ≤0.10 % IA/g
Intestines uptake (AR42J tumor-bearing mice; 1.0 nmol/mouse): 0.21 ± 0.13 % IA/g
Kidneys uptake (AR42J tumor-bearing mice; 1.0 nmol/mouse): 9.9 ± 1.3 % IA/g
Liver uptake (AR42J tumor-bearing mice; 1.0 nmol/mouse): 0.17 ± 0.01 % IA/g
Lung uptake (AR42J tumor-bearing mice; 1.0 nmol/mouse): 0.27 ± 0.03 % IA/g
Muscle uptake (AR42J tumor-bearing mice; 1.0 nmol/mouse): ≤0.10 % IA/g
Pancreas uptake (AR42J tumor-bearing mice; 1.0 nmol/mouse): 0.71 ± 0.07 % IA/g
Spleen uptake (AR42J tumor-bearing mice; 1.0 nmol/mouse): 0.11 ± 0.02 % IA/g
Stomach uptake (AR42J tumor-bearing mice; 1.0 nmol/mouse): 0.74 ± 0.38 % IA/g
kidney uptake (AR42J tumor-bearing mice): ~10 % IA/g

C[C@@H](O)[C@@H]1NC(=O)[C@H](CCCCN)NC(=O)[C@@H](Cc2c[nH]c3ccccc23)NC(=O)[C@H](Cc2ccc(O)cc2)NC(=O)[C@@H](NC(=O)[C@@H](Cc2ccccc2)NC(=O)CN2CCN(CC(=O)O)CCN(CC(=O)O)CCN(CC(=O)O)CC2)CSSC[C@@H](C(=O)N[C@H](CO)[C@@H](C)O)NC1=O [[^177Lu]Lu-DOTATOC] [metal not drawn]
tumor growth delay ([1]; 0.2 nmol (Day 0, Day 7)): 6.0 ± 4.4 days
tumor doubling time [1]: 3.4 ± 0.8 days
ALB (albumin), plasma [2]: 24 ± 5 g/L
ALP (alkaline phosphatase), plasma [2]: 77 ± 8 U/L
BUN (blood urea nitrogen), plasma [2]: 6.3 ± 0.9 mmol/L
CRE (creatinine), plasma [2]: <18 µmol/L
Organ mass Brain [2]: 453 ± 31 mg
Organ mass Kidneys [2]: 342 ± 23 mg
Organ mass Liver [2]: 1121 ± 123 mg
Organ mass Spleen [2]: 90 ± 17 mg
AR42J Tumor uptake (AR42J tumor-bearing mice; 0.040 nmol/mouse): 18 ± 3 % IA/g
Adrenals uptake (AR42J tumor-bearing mice; 0.040 nmol/mouse): 0.65 ± 0.10 % IA/g
Blood uptake (AR42J tumor-bearing mice; 0.040 nmol/mouse): ≤0.10 % IA/g
Femur uptake (AR42J tumor-bearing mice; 0.040 nmol/mouse): 0.17 ± 0.05 % IA/g
Heart uptake (AR42J tumor-bearing mice; 0.040 nmol/mouse): ≤0.10 % IA/g
Intestines uptake (AR42J tumor-bearing mice; 0.040 nmol/mouse): 0.33 ± 0.05 % IA/g
Kidneys uptake (AR42J tumor-bearing mice; 0.040 nmol/mouse): 10 ± 2 % IA/g
Liver uptake (AR42J tumor-bearing mice; 0.040 nmol/mouse): 0.18 ± 0.02 % IA/g
Lung uptake (AR42J tumor-bearing mice; 0.040 nmol/mouse): 1.1 ± 0.2 % IA/g
Muscle uptake (AR42J tumor-bearing mice; 0.040 nmol/mouse): ≤0.10 % IA/g
Pancreas uptake (AR42J tumor-bearing mice; 0.040 nmol/mouse): 1.9 ± 0.2 % IA/g
Spleen uptake (AR42J tumor-bearing mice; 0.040 nmol/mouse): 0.39 ± 0.11 % IA/g
Stomach uptake (AR42J tumor-bearing mice; 0.040 nmol/mouse): 1.7 ± 0.3 % IA/g
AR42J Tumor uptake (AR42J tumor-bearing mice; 0.20 nmol/mouse): 17 ± 4 % IA/g
Adrenals uptake (AR42J tumor-bearing mice; 0.20 nmol/mouse): 0.51 ± 0.35 % IA/g
Femur uptake (AR42J tumor-bearing mice; 0.20 nmol/mouse): 0.10 ± 0.01 % IA/g
Heart uptake (AR42J tumor-bearing mice; 0.20 nmol/mouse): ≤0.10 % IA/g
Intestines uptake (AR42J tumor-bearing mice; 0.20 nmol/mouse): 0.40 ± 0.25 % IA/g
Kidneys uptake (AR42J tumor-bearing mice; 0.20 nmol/mouse): 10 ± 3 % IA/g
Liver uptake (AR42J tumor-bearing mice; 0.20 nmol/mouse): 0.15 ± 0.03 % IA/g
Lung uptake (AR42J tumor-bearing mice; 0.20 nmol/mouse): 0.63 ± 0.03 % IA/g
Muscle uptake (AR42J tumor-bearing mice; 0.20 nmol/mouse): ≤0.10 % IA/g
Pancreas uptake (AR42J tumor-bearing mice; 0.20 nmol/mouse): 1.7 ± 0.5 % IA/g
Spleen uptake (AR42J tumor-bearing mice; 0.20 nmol/mouse): 0.15 ± 0.02 % IA/g
Stomach uptake (AR42J tumor-bearing mice; 0.20 nmol/mouse): 1.1 ± 0.2 % IA/g
AR42J Tumor uptake (AR42J tumor-bearing mice; 1.0 nmol/mouse): 8.9 ± 1.5 % IA/g
Adrenals uptake (AR42J tumor-bearing mice; 1.0 nmol/mouse): 0.28 ± 0.08 % IA/g
Blood uptake (AR42J tumor-bearing mice; 1.0 nmol/mouse): ≤0.10 % IA/g
Femur uptake (AR42J tumor-bearing mice; 1.0 nmol/mouse): ≤0.10 % IA/g
Heart uptake (AR42J tumor-bearing mice; 1.0 nmol/mouse): ≤0.10 % IA/g
Intestines uptake (AR42J tumor-bearing mice; 1.0 nmol/mouse): 0.20 ± 0.05 % IA/g
Kidneys uptake (AR42J tumor-bearing mice; 1.0 nmol/mouse): 11 ± 1 % IA/g
Liver uptake (AR42J tumor-bearing mice; 1.0 nmol/mouse): 0.26 ± 0.07 % IA/g
Lung uptake (AR42J tumor-bearing mice; 1.0 nmol/mouse): 0.37 ± 0.06 % IA/g
Muscle uptake (AR42J tumor-bearing mice; 1.0 nmol/mouse): ≤0.10 % IA/g
Pancreas uptake (AR42J tumor-bearing mice; 1.0 nmol/mouse): 0.80 ± 0.13 % IA/g
Spleen uptake (AR42J tumor-bearing mice; 1.0 nmol/mouse): 0.15 ± 0.03 % IA/g
Stomach uptake (AR42J tumor-bearing mice; 1.0 nmol/mouse): 0.65 ± 0.11 % IA/g
kidney uptake (AR42J tumor-bearing mice): ~10 % IA/g
